Data reported in article PMC12416549 (2024).

T1: TNFR1 (Homo sapiens, UniProt P19438)
T1 chain: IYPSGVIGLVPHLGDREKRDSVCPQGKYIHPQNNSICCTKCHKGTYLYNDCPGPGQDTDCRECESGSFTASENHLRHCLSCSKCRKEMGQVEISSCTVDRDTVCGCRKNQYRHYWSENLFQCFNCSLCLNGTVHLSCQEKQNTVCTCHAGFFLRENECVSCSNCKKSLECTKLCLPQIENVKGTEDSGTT


Target: T1, TNFR1
Experiment: yeast display SC50

Row | Binder | apparent Kd (screen) [nM]
1 | L74P (designed binder) MTLQELLREEALRRAEAEAFRYALELLAEKFPEQKEYLLDLAEEIESQIRSLSGVDVEDVRKFLDKEWAWVKEPLAEHPAELAEVEAARAARLAELRAEVEAKVAA | 13.8
2 | A23S (designed binder) MTLQELLREEALRRAEAEAFRYSLELLAEKFPEQKEYLLDLAEEIESQIRSLSGVDVEDVRKFLDKEWAWVKELLAEHPAELAEVEAARAARLAELRAEVEAKVAA | 0.446
3 | A80I (designed binder) MTLQELLREEALRRAEAEAFRYALELLAEKFPEQKEYLLDLAEEIESQIRSLSGVDVEDVRKFLDKEWAWVKELLAEHPIELAEVEAARAARLAELRAEVEAKVAA | 0.593
4 | L74D (designed binder) MTLQELLREEALRRAEAEAFRYALELLAEKFPEQKEYLLDLAEEIESQIRSLSGVDVEDVRKFLDKEWAWVKEDLAEHPAELAEVEAARAARLAELRAEVEAKVAA | 3
5 | L27N (designed binder) MTLQELLREEALRRAEAEAFRYALELNAEKFPEQKEYLLDLAEEIESQIRSLSGVDVEDVRKFLDKEWAWVKELLAEHPAELAEVEAARAARLAELRAEVEAKVAA | 0.49
6 | W70C (designed binder) MTLQELLREEALRRAEAEAFRYALELLAEKFPEQKEYLLDLAEEIESQIRSLSGVDVEDVRKFLDKEWACVKELLAEHPAELAEVEAARAARLAELRAEVEAKVAA | 2.73
7 | L74N (designed binder) MTLQELLREEALRRAEAEAFRYALELLAEKFPEQKEYLLDLAEEIESQIRSLSGVDVEDVRKFLDKEWAWVKENLAEHPAELAEVEAARAARLAELRAEVEAKVAA | 1.27
8 | L74C (designed binder) MTLQELLREEALRRAEAEAFRYALELLAEKFPEQKEYLLDLAEEIESQIRSLSGVDVEDVRKFLDKEWAWVKECLAEHPAELAEVEAARAARLAELRAEVEAKVAA | 1.4
9 | E44N (designed binder) MTLQELLREEALRRAEAEAFRYALELLAEKFPEQKEYLLDLAENIESQIRSLSGVDVEDVRKFLDKEWAWVKELLAEHPAELAEVEAARAARLAELRAEVEAKVAA | 24.4
10 | A106Y (designed binder) MTLQELLREEALRRAEAEAFRYALELLAEKFPEQKEYLLDLAEEIESQIRSLSGVDVEDVRKFLDKEWAWVKELLAEHPAELAEVEAARAARLAELRAEVEAKVAY | 0.79
11 | D65A (designed binder) MTLQELLREEALRRAEAEAFRYALELLAEKFPEQKEYLLDLAEEIESQIRSLSGVDVEDVRKFLAKEWAWVKELLAEHPAELAEVEAARAARLAELRAEVEAKVAA | 0.653
12 | V100I (designed binder) MTLQELLREEALRRAEAEAFRYALELLAEKFPEQKEYLLDLAEEIESQIRSLSGVDVEDVRKFLDKEWAWVKELLAEHPAELAEVEAARAARLAELRAEIEAKVAA | 0.653
13 | R89Q (designed binder) MTLQELLREEALRRAEAEAFRYALELLAEKFPEQKEYLLDLAEEIESQIRSLSGVDVEDVRKFLDKEWAWVKELLAEHPAELAEVEAAQAARLAELRAEVEAKVAA | 0.593
14 | A69D (designed binder) MTLQELLREEALRRAEAEAFRYALELLAEKFPEQKEYLLDLAEEIESQIRSLSGVDVEDVRKFLDKEWDWVKELLAEHPAELAEVEAARAARLAELRAEVEAKVAA | 0.653
15 | E67H (designed binder) MTLQELLREEALRRAEAEAFRYALELLAEKFPEQKEYLLDLAEEIESQIRSLSGVDVEDVRKFLDKHWAWVKELLAEHPAELAEVEAARAARLAELRAEVEAKVAA | 0.335
16 | P32A (designed binder) MTLQELLREEALRRAEAEAFRYALELLAEKFAEQKEYLLDLAEEIESQIRSLSGVDVEDVRKFLDKEWAWVKELLAEHPAELAEVEAARAARLAELRAEVEAKVAA | 0.653
17 | L39R (designed binder) MTLQELLREEALRRAEAEAFRYALELLAEKFPEQKEYLRDLAEEIESQIRSLSGVDVEDVRKFLDKEWAWVKELLAEHPAELAEVEAARAARLAELRAEVEAKVAA | 1.4
18 | L24P (designed binder) MTLQELLREEALRRAEAEAFRYAPELLAEKFPEQKEYLLDLAEEIESQIRSLSGVDVEDVRKFLDKEWAWVKELLAEHPAELAEVEAARAARLAELRAEVEAKVAA | 26.9

Row | Binder | apparent Kd (screen) [nM]
19 | D59E (designed binder) MTLQELLREEALRRAEAEAFRYALELLAEKFPEQKEYLLDLAEEIESQIRSLSGVDVEEVRKFLDKEWAWVKELLAEHPAELAEVEAARAARLAELRAEVEAKVAA | 0.539
20 | E10S (designed binder) MTLQELLRESALRRAEAEAFRYALELLAEKFPEQKEYLLDLAEEIESQIRSLSGVDVEDVRKFLDKEWAWVKELLAEHPAELAEVEAARAARLAELRAEVEAKVAA | 2.25
21 | A106H (designed binder) MTLQELLREEALRRAEAEAFRYALELLAEKFPEQKEYLLDLAEEIESQIRSLSGVDVEDVRKFLDKEWAWVKELLAEHPAELAEVEAARAARLAELRAEVEAKVAH | 0.718
22 | M1K (designed binder) KTLQELLREEALRRAEAEAFRYALELLAEKFPEQKEYLLDLAEEIESQIRSLSGVDVEDVRKFLDKEWAWVKELLAEHPAELAEVEAARAARLAELRAEVEAKVAA | 0.49
23 | L75Q (designed binder) MTLQELLREEALRRAEAEAFRYALELLAEKFPEQKEYLLDLAEEIESQIRSLSGVDVEDVRKFLDKEWAWVKELQAEHPAELAEVEAARAARLAELRAEVEAKVAA | 0.79
24 | L27H (designed binder) MTLQELLREEALRRAEAEAFRYALELHAEKFPEQKEYLLDLAEEIESQIRSLSGVDVEDVRKFLDKEWAWVKELLAEHPAELAEVEAARAARLAELRAEVEAKVAA | 0.869
25 | Q48S (designed binder) MTLQELLREEALRRAEAEAFRYALELLAEKFPEQKEYLLDLAEEIESSIRSLSGVDVEDVRKFLDKEWAWVKELLAEHPAELAEVEAARAARLAELRAEVEAKVAA | 0.593
26 | R61F (designed binder) MTLQELLREEALRRAEAEAFRYALELLAEKFPEQKEYLLDLAEEIESQIRSLSGVDVEDVFKFLDKEWAWVKELLAEHPAELAEVEAARAARLAELRAEVEAKVAA | 1.05
27 | E16Y (designed binder) MTLQELLREEALRRAYAEAFRYALELLAEKFPEQKEYLLDLAEEIESQIRSLSGVDVEDVRKFLDKEWAWVKELLAEHPAELAEVEAARAARLAELRAEVEAKVAA | 0.446
28 | A69E (designed binder) MTLQELLREEALRRAEAEAFRYALELLAEKFPEQKEYLLDLAEEIESQIRSLSGVDVEDVRKFLDKEWEWVKELLAEHPAELAEVEAARAARLAELRAEVEAKVAA | 0.956
29 | R89E (designed binder) MTLQELLREEALRRAEAEAFRYALELLAEKFPEQKEYLLDLAEEIESQIRSLSGVDVEDVRKFLDKEWAWVKELLAEHPAELAEVEAAEAARLAELRAEVEAKVAA | 0.956
30 | V60G (designed binder) MTLQELLREEALRRAEAEAFRYALELLAEKFPEQKEYLLDLAEEIESQIRSLSGVDVEDGRKFLDKEWAWVKELLAEHPAELAEVEAARAARLAELRAEVEAKVAA | 1.54
31 | L75K (designed binder) MTLQELLREEALRRAEAEAFRYALELLAEKFPEQKEYLLDLAEEIESQIRSLSGVDVEDVRKFLDKEWAWVKELKAEHPAELAEVEAARAARLAELRAEVEAKVAA | 0.593
32 | W68K (designed binder) MTLQELLREEALRRAEAEAFRYALELLAEKFPEQKEYLLDLAEEIESQIRSLSGVDVEDVRKFLDKEKAWVKELLAEHPAELAEVEAARAARLAELRAEVEAKVAA | 12.5
33 | F63M (designed binder) MTLQELLREEALRRAEAEAFRYALELLAEKFPEQKEYLLDLAEEIESQIRSLSGVDVEDVRKMLDKEWAWVKELLAEHPAELAEVEAARAARLAELRAEVEAKVAA | 1.16
34 | A23E (designed binder) MTLQELLREEALRRAEAEAFRYELELLAEKFPEQKEYLLDLAEEIESQIRSLSGVDVEDVRKFLDKEWAWVKELLAEHPAELAEVEAARAARLAELRAEVEAKVAA | 0.49
35 | V57A (designed binder) MTLQELLREEALRRAEAEAFRYALELLAEKFPEQKEYLLDLAEEIESQIRSLSGVDAEDVRKFLDKEWAWVKELLAEHPAELAEVEAARAARLAELRAEVEAKVAA | 0.49
